In paper PMC3237428:

Biological target: β-catenin (endogenous in HEK293 cells) (human (endogenous in HEK293)) (UniProt P35222)
Assay: co-IP; reciprocal immunoprecipitation from stable HEK cell lysates with protein A/G agarose, anti-β-catenin antibody or rabbit antibody BsloC; western blot; 0.5% DDM

Chain of UniProt P35222 (P35222 whole entry): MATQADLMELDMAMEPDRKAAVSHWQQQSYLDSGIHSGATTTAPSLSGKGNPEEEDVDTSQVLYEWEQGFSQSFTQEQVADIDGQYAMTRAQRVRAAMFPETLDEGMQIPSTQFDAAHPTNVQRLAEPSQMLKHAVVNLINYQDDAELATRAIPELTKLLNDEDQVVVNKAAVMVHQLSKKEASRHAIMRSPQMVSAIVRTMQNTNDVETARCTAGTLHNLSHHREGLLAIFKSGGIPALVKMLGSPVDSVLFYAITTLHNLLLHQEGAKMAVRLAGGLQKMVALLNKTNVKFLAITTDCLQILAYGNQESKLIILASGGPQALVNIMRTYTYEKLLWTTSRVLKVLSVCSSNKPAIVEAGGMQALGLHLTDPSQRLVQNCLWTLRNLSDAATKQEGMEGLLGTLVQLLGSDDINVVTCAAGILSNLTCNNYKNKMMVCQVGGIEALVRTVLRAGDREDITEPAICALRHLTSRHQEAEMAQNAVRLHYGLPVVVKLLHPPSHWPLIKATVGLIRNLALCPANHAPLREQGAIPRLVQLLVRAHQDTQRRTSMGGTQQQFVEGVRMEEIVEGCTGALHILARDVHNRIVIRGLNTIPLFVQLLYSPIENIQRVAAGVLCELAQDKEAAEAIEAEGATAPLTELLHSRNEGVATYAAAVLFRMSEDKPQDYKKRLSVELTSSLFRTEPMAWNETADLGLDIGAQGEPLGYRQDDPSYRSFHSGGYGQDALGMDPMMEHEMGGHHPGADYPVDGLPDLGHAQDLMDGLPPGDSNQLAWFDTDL

“HSloΔS10 (HSlo deletion construct lacking the S10 region) (natural protein)” showed a ratio of HSlo in β-catenin immunoprecipitates, wild type HSlo to HSloΔS10 (fold (wild type over HSloΔS10)) of 4.
